Among the data in a protein production outcome set (Wang et al. 2014) are protein production values, retold here.
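Further: failed if final PepcDB status was selected cloned or expressed and not failed if soluble or beyond.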

The nature of the series: label from the status in PepcDB records.
Regarding “MTQHITRMRREIDEIPEAVQRLLDHGAQDVARVAAVLRLRDPSFVATVARGSSDHVCTYLSYAAELLLGLPVASLGPSVASVYDARLRLDRALCLAVSQSGKSPDIVAMTRNAGRDGALCVALTNDAASPLAGVSAHTIDIHAGPELSVAATKTFVTSAVAGLMLLADWAEDDGLRAALGNLPETLAAASRIDWPEMRVAIGARPSLFTLGRGTSLAVSNEAALKFKETCQLHAESYSSAEVLHGPVSIVEEGFPVLGFAAGDAAEAPLAEIADQIAAKGATVFATTGRVTRARVLEHVRSGHALTDPLSLIVSFYSMVEAFASERGIDPDAPRHLNKVTETV”, the protein production entry is recorded as “not failed”.
Next, “MPNMGIEKLYVSQQLTDSAAGMTFTKPQYYKYVQELSLKPKVNSASAYAENRKVDQDTQFDSCDVSINLFQMTSSQRAFMLGQSLAGGGGAIGALNDKAPWITLLYKAPIKVDDTIYYRYGVIYKTQFQPPDDDYKTTEGKPDFSQVPKISGSAQPTEWSFKDGKLEKHPWEWHVDTCDPNCPENIDDTWFNSVSIPSLVTYGSLSLSASSPKDGATGISLDTKPSLTFNNPIMNATSILLYNVSDGATVNTTTSSDSSGKIITITPSTNLVANKNYVLVVQDVTDLYGQTLDTQLIRFTTATAASLEHHHHHH”: “not failed”; “MDRRIAMSLQVLGAGLGRTGTLSLKFALEHLGFGPCYHATEVAANMRTALPLWNAAERGAADWSAIFAGYRSSTDHPGCYYWRQLIEVYPQAKVVLTVRDPDSWFESVTQTILMPGRKSTFVGPEGETFSTFLKQQMGGRSQDRAFMVDYFNRWNQAVIDAVPSDRLLVFSSRQGWAPLCGFLSVPVPHKPYPHLHARPRLRWFTRGLRLPDDVAARERHVREYLQYLREDLFGLEHHHHHH”: “not failed”; “MAEPRENLMDWLRDAHAMEQQAEQMLKAQAARIEHYPKLKARIEQHLEETLGQQRLVEASIERLGGSPSVVKDAMGKMAAFGQAMGGMTTSDEIVKGAMASYVFENLEIATYTALLGAAKTVGDVETQRMCEQILPQEEAMAKWLLEHLPELTEEFLVRDATPGVTAKK”: “failed”.
To “MFLFSLTLGVYCSSWTFYGATGAAVREGVIFLPIYLGPLLFVWFGYDIWRRLGRVRQHHAISSIADFVAARYGKSGVLASLVTILAVIAIIPYLALQLRAIALSTSVIMEQSSHIHTTTNSVLLLTSVLAILAMIFGTRQIANTEQHGGLMLAVAFESFVKLFALLCVALFFIFESPANLSQMTSDVNQTFQEVQLFGVPETFWIQTLLAGLAIICLPRQFHVAVVELRDEKHIRGARKWFAVYLILTILAIIPIASWALHAAPKFLTVPDVAVLSLPLSYNQEWLALLAFLGGFSASTGMLLVSSVALSIMLSNDLIMPALWRFKLLSRHDKHLPKVLKFSRRISIVAVMLLGFLFFHFFNDINQLSVFGLLAFSAVAQFAPALIGGLYWRGGSRQGVYAGLIIGFLMWSYTLLFPTILRSLPEAYQETAQSILLFGPFGINALRPESLFGFESFAPLTHGVIWSLGLNIVLYIWISKIYRPSVAEQIQAESFFYYETKPLPSPHTSTDLTYLPHDAARLKVGDLFALAKRITGEQPTTQAFENFCEQNHLTLNPNSIANGMWWRFTEQYLAGIIGAASARTLLTTAMINNGLALGQVANILDQASQWQRFNQNLLMTMIDHMTQGVSVVDKNMCLVAWNNQYLKLFGYPKDLVYVGCPIADLIRYNAERGECGPGSVEEHVRKRLHWMKVGSAHEFERIRKDGRVIQMRGNPIAGGGFVTTFADITAFRANEAVLEARVKDRTQQLADALTEQQLAREQADMANMSKSRFIAAASHDLLQPMHAARLFSTVLEQSISTEEDRQTLQQLDRALYGAESMLSALLDIARLEGGTIQPKRQPYPLHDLLSDLELQFKSIAAQRNISLKVHDVSFWIDTDPQWIRRIIQNFVSNALRYTAKGRVVVGVLRSAQQSGHIRIGVWDTGPGIAEEQRIKLFQEFERCGHLSPWGEQGLGLGLAIVQRMTGLLNYPVHVYSELGKGSCFMIEVPIVEPPKVATPAVQAVPLKTKAYRILCLDNDETILEGMSSLLGRWGYQVFKATEPEQALEIIQKENIQVWLIDQHLNHNQLGVDFITQNRQEDVPVALITADSHPELPQQLKELNIVLLKKPLKPASLRAWLSGLKIASTTD” belongs “failed”; to “MIAHPVVGIVGIAGAYGRWLAQFLRTRMGLEVIGVDPALPDGLDDATLVARADVLIFSAPIRHTAALIERYAALAGARAAEQLWLDVTSIKQAPVAAMLASQAEVVGLHPMTAPPKSPTLKGRVMVVCRARVQRWSGWVDALCSALQAECVYATPEHHDRVMALVQAMVHATHLAQAGTLRDYAPLLGELRTLMPYRSASFELDTAVIARILSLNPSIYEDIQFGNPYVAEMLDRLLAQLQELRGLVVQGDDAARLRFRQAFLDANAQALQGDSLAAGNYTYERVGYLLADLTEPLTLSVYLPEDQPGSLRVLLHVFEQHGVNLSSIHSSRTPGGELHFRMGFEPESDRAALGRAAAQIDADRIGRVLERVDRER”, “failed”.
Next, “MSNSINLGRVAVIDIGKTNAKVVVIDTGSGEEIAAEKRTNPVLRDGPYPHYDVEMLWNFILAALQRFGHEPGFDAISITTHGASAALLDGTGDLAMPVLDYEHIYAEPVQQAYRGIRPDFAETGSPQLPAGLNLGAQIHFQKTNFPDDFARVRSIVTYPQYWAGRLTGVQATETTSLGCHTDLWNPRRKSFSSLVGRLGIEHLMAPVRSAFDVLGTIRPSLAQETGLSPDMPVYCGIHDSNASLLPHLLRREGDFSVVSTGTWVVNFAIGGKADALDPARDTLLNVDALGRPVPSSRFMGGREYEMLAQQFGAATPHDIEAALGGVIEKGMMLLPSVVSGSGPFPQSASRWIADSDATGAERHAAASLYLALMTEFCLSLVERRGPIVVEGPFAGNALYLKALAAFAATDVIAMEGSTGTSAGAALLTGIKPVAGRERHFTAEDIAGLTSYRTAWQNHLT”: “failed”; “MLRLDTRFLPGFPEALSRHGPLLEEARRRLLAKRGEPGSMLGWMDLPEDTETLREVRRYREANPWVEDFVLIGIGGSALGPKALEAAFNESGVRFHYLDHVEPEPILRLLRTLDPRKTLVNAVSKSGSTAETLAGLAVFLKWLKAHLGEDWRRHLVVTTDPKEGPLRAFAEREGLKAFAIPKEVGGRFSALSPVGLLPLAFAGADLDALLMGARKANETALAPLEESLPLKTALLLHLHRHLPVHVFMVYSERLSHLPSWFVQLHDESLGKVDRQGQRVGTTAVPALGPKDQHAQVQLFREGPLDKLLALVIPEAPLEDVEIPEVEGLEAASYLFGKTLFQLLKAEAEATYEALAEAGQRVYALFLPEVSPYAVGWLMQHLMWQTAFLGELWEVNAFDQPGVELGKVLTRKRLAG”: “not failed”.
In the case of “NKKIYVGMTADIMHPGLIHIIHEATKYGDVIVGLLTDKAIAEHKRLPYLTYDQRKEVVENIKGVCEVVPQEDWSYVPNLEKLKPDYIIHGDDWKTGPLREVREQVFEVMNAQGGKVIEIPYTRGINSSSLDKDIKAIGT”, the protein production entry was “failed”.
“MTLAVTAQPALAADRGHSVPLRIATYNIHAGAGSDGVFDLDRQAAALRALDADVIGLQEVDVHWGARSQGLDVAGELARRLGMRVSFAPIYSLDPVTAGEPRREYGVAVLSRFPVRSATNHEITRLSTQDENPLPAPAPGFGEVTLKVRGVPVQVFVTHLDYRADPAVRRAQVADTRRIMARERAELPGAHQFLLGDFNAEPAAPELAPLWKELSDAGAGTPATYPAQAPVKRIDYVTAGKDVRIRRTAVPEEPAASDHRPVVADVSLPRRTPGRD”: the protein production result was “failed”.
To “ERREKKNKIMQAKEDFKKMMEEAKFNPRATFSEFAAKHAKDSRFKAIEKMKDREALFNEFVAAARKKEKE” belongs “not failed”; to “MTVAFASDQRLENGAEQLESLRRQMALLSEKVSGGPSRSGDLVPAGPVSLPPGTVGVLSGARSLLLSMVASVTAAGGNAAIVGQPDIGLLAAVEMGADLSRLAMIPDPGTDPVEVAAVLIDGMDLVVLGLGGRRVTRARARAVVARARQKGCTLLVTDGDWQGVSTRLAARVCGYEITPALRGVPTPGLGRISGVRLQINGRGR”, “failed”; to “MSLRTGKTNVIALVLSVDEELMGFTSQMVFGITEVLSTTQYHLVVTPHIHAKDSMVPIRYILETGSADGVIISKIEPNDPRVRFMTERNMPFVTHGRSDMGIEHAFHDFDNEAYAYEAVERLAQCGRKRIAVIVPPSRFSFHDHARKGFNRGIRDFGLTEFPIDAVTIETPLEKIRDFGQRLMQSSDRPDGIVSISGSSTIALVAGFEAAGVKIGEDVDIVSKQSAEFLNWIKPQIHTVNEDIKLAGRELAKALLARINGEAAETLQSISGPVWSSMAPKEGHHHHHH”, “not failed”.
Next, “MEFRFENLLGAPYRGGNAVITKNTQLISPVGNRVSVTDLSKNHSVTLPLETSTNICRLASSPDGTFLLAVDEQNRCLFINLPRRVVLHRITFKDKVGALKFSPNGKFIAVGIGKLVEIWRSPGFRRAVLPFERVRTFANSDDKVVSLEWSLDSDYLLVGSRDLAARLFCVRKLKGVLNKPFLFLGHRDSVVGCFFGVDKMTNKVNRAFTIARDGYIFSWGYTEKDVKMDESEDGHSEPPSPVTPDRADEVMVENGGGVGTELKKRKEYDGKGLESDEEGDDDDEEYMHRGKWVLLRKDGCNQASAKVTACDYHQGLDMVVVGFSNGVFGLYQMPDFICIHLLSISRQKLTTAVFNERGNWLTFGCAKLGQLLVWDWRTETYILKQQGHYFDVNCVTYSPDSQLLATGADDNKVKVWNVMSGTCFITFTEHTNAVTALHFMADNHSLLSASLDGTVRAWDFKRYKNYKTYTTPTPRQFVSLTADPSGDVVCAGTLDSFEIFVWSKKTGQIKDILSGHEAPVHGLMFSPLTQLLASSSWDYTVRLWDVFASKGTVETFRHNHDVLTVAFRPDGKQLASSTLDGQINFWDTIEGVLMYTIEGRRDIAGGRVMTDRRSAANSSSGKCFTTLCYSADGGYILAAGTSRYICMYDIADQVLLRRFQISHNLSLDGVLDFLHSKKMTEAGPIDLIDDDNSDEEGGIDKQSRGNLGYDLPGSRPNRGRPIIRTKSLSIAPTGRSFAAATTEGVLIFSIDDTFIFDPTDLDIDVTPEAVEAAIEEDEVSRALALSMRLNEDSLIKKCIFAVAPADIKAVAISVRQKYLERLMEALVDLLENCPHLEFILHWCQEICKAHGSSIQRNYRTLLPALRSLQKAITRAHQDLADMCSSNEYTLRYLCSVPNNH”: “failed”; “MLTKFKSLPKAVYAILALSFLLHVFCLVKQPGLDGELVKVTYGANDAFNYSLTAEQLLKHGVFGYVYLEPSEVPGKNAYITPGQPLLLAGAMIISDITSIPYYYVATVINMIMNLCTVLLVFLIGKELFEKNIYGIVASILYAIYPSNYTYFRTLLTEVPSIFLLALCVYVFVLAWKYNKVKFHIWFGIVVSILLMFRPNPAPMMLIPVLVVLFTYGFKDSIRIGLLWFIGPFFIIGAWVVRNYLALNQFILFSTQGADPLIAGADPFNKIGYENIVNEMRAKGLDDKGAYAKELIKNGFKTDFTYWFSWFTVGKTIELFKTAPAVDQYRIHNFMQLCHRVFIIGTFLSSFCFMLNSFKHKRVMMLVASSIIYIIFSNLFLAINRYGFFINPLMCLILAYGLIHIVQKLPFFRTNQA”: “failed”.
Next, “MSSLKDNYQSKVKAYQPSPPYVLNCIKAFLVGGLICTIGQAFQNFYMAVFHFDEKTAGNPTVATLILISALLTGLGVYDRIGQFAGAGSAVPVTGFANSMTSAALEHKSEGYVLGVGTNMFKLAGNVIVFGVVAAYIVGMIRFAFDKLF”: “failed”; “MNNHQTPQATSPLAAWLCYLEHLHSQPIELGLERVKQVAERLDLLKPAPKIFTVAGTNGKGTTCCTLEAILLAAGLRVGVYSSPHLLRYTERVRIQGQELSEAEHSHSFAQIEAGRGDISLTYFEFGTLSALQLFKQAKLDVVILEVGLGGRLDATNIVDSDVAAITSIALDHTDWLGYDRESIGREKAGVFRGGKPAVVGEPDMPQSIADVAAELGAQLYRRDVAWKFSQQEPFDQQEPVDQQINGWHWQCGERQLTGLPVPNVPLANAATALAVLHYSELPLSDEAIRQGLQAASLPGRFQVVSEQPLLILDVAHNPHAARYLVNRLAQVINPVNASKQGKVRAVVGMLSDKDIAGTLACLSERVDEWYCAPLEGPRGASAGQLAEHLVSARQFSDVETAWRQAMQDADTQDVVIVCGSFHTVAHVMAALHL”: “not failed”.
